The series is classed as physicochemical. As to conditions: for MMAD / released dosage at the mouthpiece as share of the nominal value / released dosage: 0.1 mg/ml in physiological saline; for released dosage: at the mouthpiece; for time of aerosol release: corresponds to 30 strokes/breaths. Here is the method:
Aviptadil can be obtained, e.g., from Bachem AG, Bubendorf, Switzerland, in GMP quality.
The experimental procedure was carried out pursuant to Ph. Eur. 2.9.44 (Preparations for Nebulisation: Characterisation). A cascade impactor (Next Generation Impactor (NGI), Copley Scientific Ltd., Nottingham, UK) was used to determine the respective percentage for each fraction of the nebulized particles.
The thus generated aerosol was delivered to the cascade impactor by means of a mouthpiece (SK-211, NEBU-TEC, Eisenfeld, Germany).
The nebulization chamber (yellow stamp, 250 μl liquid discharge) was filled. The puff profile configured at the breath simulator was chosen in such a way that a correct simulation of inhalation by means of the nebulizer was ensured. The corresponding time was recorded.
Single values obtained for each cascade were added. […] MMAD, FPF and FPM were calculated from the obtained values: […]

In the case of Colistin [reference compound], the MMAD worked out at 3.61 μm, the “released dosage at the mouthpiece as share of the nominal value” (from here on “released dosage at the mouthpiece”) worked out at 75%, the released dosage worked out at 0.075 mg and the “time of aerosol release” value is on record as 3 min.

With “His-Ser-Asp-Gly-Ile-Phe-Thr-Asp-Ser-Tyr-Ser-Arg-Tyr-Arg-Lys-Gln-Met-Ala-Val-Lys-Lys-Tyr-Leu-Ala-Ala-Val-Leu-Gly-Lys-Arg-Tyr-Lys-Gln-Arg-Val-Lys-Asn-Lys [PACAP-38]”, the MMAD came to 3.25 μm, the “released dosage at the mouthpiece” value came to 58%, the released dosage was 0.058 mg and the “time of aerosol release” value stood at 3 min.

Take “Tyr-Arg-Gln-Ser-Met-Asn-Asn-Phe-Gln-Gly-Leu-Arg-Ser-Phe-Gly-Cys-Arg-Phe-Gly-Thr-Cys-Thr-Val-Gln-Lys-Leu-Ala-His-Gln-Ile-Tyr-Gln-Phe-Thr-Asp-Lys-Asp-Lys-Asp-Asn-Val-Ala-Pro-Arg-Ser-Lys-Ile-Ser-Pro-Gln-Gly-Tyr [adrenomedullin]”: the MMAD is on record as 3.41 μm, the “released dosage at the mouthpiece” value is recorded as 53%, the released dosage is reported as 0.053 mg and the “time of aerosol release” value stood at 3 min.

Take “Ac-Ser-Tyr-Ser-Met-Glu-His-Phe-Arg-Trp-Gly-Lys-Pro-Val-NH2 [α-melanocyte stimulating hormone]”: the MMAD was 3.11 μm, the “released dosage at the mouthpiece” value is 45%, the released dosage was found to be 0.045 mg and the “time of aerosol release” value is on record as 3 min.

Turning to “relaxin-3: human relaxin isoform, heterodimer of 51 amino acids, subunit 1 SEQ ID NO: 12 and subunit 2 SEQ ID NO: 13”, the MMAD is 3.36 μm, the “released dosage at the mouthpiece” value was 49%, the released dosage was 0.049 mg and the “time of aerosol release” value was found to be 3 min.

Consider “Gly-Leu-Ser-Lys-Gly-Cys-Phe-Gly-Leu-Lys-Leu-Asp-Arg-Ile-Gly-Ser-Met-Ser-Gly-Leu-Gly-Cys [C-type natriuretic peptide]”, for which the MMAD is 3.37 μm, the “released dosage at the mouthpiece” value is listed as 77%, the released dosage is 0.077 mg and the “time of aerosol release” value is given as 3 min.

For “Ser-Pro-Lys-Met-Val-Gln-Gly-Ser-Gly-Cys-Phe-Gly-Arg-Lys-Met-Asp-Arg-Ile-Ser-Ser-Ser-Ser-Gly-Leu-Gly-Cys-Lys-Val-Leu-Arg-Arg-His [B-type natriuretic peptide]”, the MMAD was 3.46 μm, the “released dosage at the mouthpiece” value is 69%, the released dosage came out at 0.069 mg and the “time of aerosol release” value came to 3 min.

B1: dornase alfa: recombinant human deoxyribonuclease I, polypeptide produced in CHO cells, comparative example (protein, UniProt P24855 23-282, looked up)
Deoxyribonuclease-1: LKIAAFNIQTFGETKMSNATLVSYIVQILSRYDIALVQEVRDSHLTAVGKLLDNLNQDAPDTYHYVVSEPLGRNSYKERYLFVYRPDQVSAVDSYYYDDGCEPCGNDTFNREPAIVRFFSRFTEVREFAIVPLHAAPGDAVAEIDALYDVYLDVQEKWGLEDVMLMGDFNAGCSYVRPSQWSSIRLWTSPTFQWLIPDSADTTATPTHCAYDRIVVAGMLLRGAVVPDSALPFNFQAAYGLSDQLAQAISDHYPVEVMLK
As to B1, the MMAD is reported as 3.72 μm, the “released dosage at the mouthpiece” value came to 65%, the released dosage is 0.065 mg and the “time of aerosol release” value was found to be 3 min.

B2: interferon gamma: human cytokine of 17 kD, 138 amino acids, SEQ ID NO: 14 (protein, listed as Homo sapiens)
chain: QDPYVKEAENLKKYFNAGHSDVADNGTLFLGILKNWKEESDRKIMQSQIVSFYFKLFKNFKDDQSIQKSVETIKEDMNVKFFNSNKKKRDDFEKLTNYSVTDLNVQRKAIHELIQVMAELSPAAKTGKRKRSQMLFRG
As for B2, the MMAD was 3.46 μm, the “released dosage at the mouthpiece” value was 95%, the released dosage stood at 0.045 mg and the “time of aerosol release” value came out at 3 min.

(Values after patent US20230103704A1, “HUMAN ANTI-IN[…] FOR THE […] OF IN[…] ISSUES” (priority 2020, published 2023).)
